# From publication PMC2708863 (The Journal of Biological Chemistry, 2009)
# Read-outs that look alike come from different tables or passages of the source.
# B1: ^3FnIII, third type III domain of human fibronectin (residues 810–900) (domain or fragment)
# chain: not shown
# B2: ^2–3FnI, human fibronectin residues 93–182 (domain or fragment, UniProt P02751 93-182, looked up)
# chain: AEETCFDKYTGNTYRVGDTYERPKDSMIWDCTCIGAGRGRISCTIANRCHEGGQSYKIGDTWRRPHETGGYMLECVCLGNGKGEWTCKPI
# How the values were obtained:
# Experiment in all cases: NMR titration
# [1] = target: T1, ^4–5FnI, human fibronectin residues 183–275 (human, UniProt P02751 183-275)
# T1 sequence (P02751 183-275): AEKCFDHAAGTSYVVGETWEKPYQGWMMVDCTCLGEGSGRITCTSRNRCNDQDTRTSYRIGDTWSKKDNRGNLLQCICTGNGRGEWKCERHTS
# ^4–5FnI (R222A) = ^4–5FnI (R222A) (human, UniProt P02751 183-275, R222A)
# Sequence of ^4–5FnI (R222A) (P02751 183-275 R222A): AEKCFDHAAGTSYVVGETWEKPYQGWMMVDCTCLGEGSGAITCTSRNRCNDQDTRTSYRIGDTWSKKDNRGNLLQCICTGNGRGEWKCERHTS
# [2] = target: T1, ^4–5FnI, human fibronectin residues …; remark: listed apart in the source
# [3] = target: B1
Binder,Kd [1] [µM],fold reduction of affinity against the wild-type interaction (^4–5FnI (R222A)) [fold],Kd [2] [µM],Kd [3] [µM]
B1,800 ± 46,> 20,146 ± 9,–
B2,–,–,–,820 ± 70
